US20130280735A1

Molecular target: ICAM-1 (COS cell transfectants) (UniProt P05362)
Assay: FACS of COS transfectants, one transfection out of at least five attempts

UniProt P05362, sequence (P05362 28-532 limits assumed): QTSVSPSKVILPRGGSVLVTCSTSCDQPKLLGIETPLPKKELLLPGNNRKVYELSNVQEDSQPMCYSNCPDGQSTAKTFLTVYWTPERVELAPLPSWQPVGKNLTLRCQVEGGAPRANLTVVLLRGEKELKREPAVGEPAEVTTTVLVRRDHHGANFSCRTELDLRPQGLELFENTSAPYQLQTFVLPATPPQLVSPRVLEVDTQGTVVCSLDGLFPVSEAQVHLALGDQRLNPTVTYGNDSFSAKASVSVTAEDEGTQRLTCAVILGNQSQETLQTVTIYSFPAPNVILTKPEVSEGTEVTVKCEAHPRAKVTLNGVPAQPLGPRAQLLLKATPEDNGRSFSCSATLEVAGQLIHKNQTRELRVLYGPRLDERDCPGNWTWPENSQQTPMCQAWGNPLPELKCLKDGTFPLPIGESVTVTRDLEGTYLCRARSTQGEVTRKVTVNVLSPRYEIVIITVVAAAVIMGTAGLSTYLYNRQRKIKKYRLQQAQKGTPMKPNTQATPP

% binding: 36%
Substance: Fc-CD33Rg (from UniProt P20138 18-259) (Fc fusion)
